{"source": "patent US20210079558A1", "molecular_target": "Protein A expressed on Staphylococcus aureus (Staphylococcus aureus) (UniProt P38507)", "test": "yeast display; one round of selection with cell-surface biotinylated S. aureus and magnetic streptavidin-coated beads; GFP+ yeast counted by flow cytometry"}
{"substance": "Fc region of the human IgG1 protein N297Q (aglycosylated) mutant, displayed on the surface of yeast", "values": [{"measurement": "fold enrichment of GFP+ yeast", "value": 30, "unit": "fold"}]}
